Measurements as given in PMC3034190 (Molecular Microbiology, 2010).

Target: the molecule itself
Test: crystal structure

B1: MSMEG_3380 (FDR-B family F420H2-dependent reductase), recombinant, for crystallography (enzyme)
chain: MVAVPEGYESLLERPLYGHLATVRPDGTPQVNAMWFAWDGEVLRFTHTTKRQKYRNIKANPAVAMSVIDPDNPYRYLEVRGLVEDIVPDPTGAFYLKLNDRYDGPLTEPPADKADRVIIVVRPTAFSKQ
modifications: seleno-methionine labelled
  binding result: binds
